# Assay results as given in publication PMC9296572, “An Unusual Oxidative Rearrangement Catalyzed by a Divergent Member of the 2‐Oxoglutarate‐Dependent Dioxygenase Superfamily during Biosynthesis of Dehydrofosmidomycin” (Angewandte Chemie (International Ed. in English), 2022).
# Tested on: C[N+](C)(C)CCP(=O)([O-])O
# Test: O2 consumption, Clark-type electrode, initial rates in first minute
# Assay type: biochemical, Streptomyces lavendulae
# Conditions: apparent; co-substrates 2-oxoglutarate and O2, Fe(II); two-turnover enzyme, value assumed to pertain to the desaturation to TMAVP
substance,measurement,value
DfmD (Streptomyces lavendulae),Km,160 µM
same,kcat,0.04 s⁻¹
